According to patent US20210388081A1 (Memorial Sloan Kettering, published 2021):

B1: ET200-015 (scFv)
scFv: QSVVTQPPSVSVAPGKTARITCGGNNIGSKSVHWYQQKPGQAPVLVIYYDSDRPSGIPERFSGSNSGNTATLTISRVEAGDEADYYCQVWDSSSDVVFGGGTKLTVLGSRGGGGSGGGGSGGGGSLEMAEVQLVQSGAEVKKPGASVKVSCKASGYTFTSYGISWVRQAPGQGLEWMGWISAYNGNTNYAQKLQGRVTMTTDTSTSTAYMELRSLRSDDTAVYYCARWGGFGAVDHWGQGTLVTVSSTSGQAGQHHHHHHGAYPYDVPDYAS
notes: screened as phage clone; entry is VL-linker-VH-His tag-HA tag
B2: ET200-013 (scFv)
scFv: QSVVTQPPSVSGAPGQRVTISCTGSTSNIGAGYDVHWYQQLPGTAPKLLIYTNNFRPSGVPDRFSASKSGTSASLAITGLQAEDEADYYCGTWDSSLSAVVFGGGTKLTVLGSRGGGGSGGGGSGGGGSLEMAEVQLVESGTEVKKPGASVKVSCKASGYMFTSYGLNWVRQAPGQGLEWMGWISANNGKTNYAKKFQDRVTMTRDTSTSTGYMELRSLRSDDTAVYYCARHIGGSYFDRWGQGTLVTVSSTSGQAGQHHHHHHGAYPYDVPDYAS
notes: as for B1
B3: ET200-016 (scFv)
scFv: SSELTQDPAVSVALGQTVKITCQGDSLTDYHATWYQQKPGQAPVAVIYATNNRPTGIPDRFSGSSSGNTASLTITGAQAEDEADYYCNSRDSGTDEVLFGGGTKLTVLGSRGGGGSGGGGSGGGGSLEMAEVQLVETGGGLVKPGGSLRLSCAASGFTFSSYSMNWVRQAPGKGLEWVSSISSSSSYIYYADSVKGRFTISRDNAKNSLYLQMNSLRAEDTAVYYCARGQGYDYWGQGTLVTVSSTSGQAGQHHHHHHGAYPYDVPDYAS
notes: as for B1
B4: ET200-021 (scFv)
scFv: QSVLTQPPSVSAAPGQKVTISCSGSNSNIGNNYVSWYQQLPGTAPKLLIYDNNKRPSGIPDRFSGSRSGTSATLGITGLQTGDEADYYCGTWNTTVTPGYVFGTGTKVTVLGSRGGGGSGGGGSGGGGSLEMAEVQLVQSGAEVKKPGASVKVSCKASGYTFTSYGISWVRQAPGQGLEWMGWISAYNGNTNYAQKLQGRVTMTTDTSTSTAYMELRSLRSDDTAMYYCARSVYDLDTWGQGTLVTVSSTSGQAGQHHHHHHGAYPYDVPDYAS
notes: as for B1
B5: ET200-019 (scFv)
scFv: NFMLTQPHSVSESPGKTVTISCTRSSGSIASNYVQWYQQRPGSAPTTVIYEDNQRPSGVPDRFSGSIDSSSNSASLTISGLKTEDEADYYCQSYDSSNSWVFGGGTKLTVLGSRGGGGSGGGGSGGGGSLEMAQVQLVQSGAEVKRPGSSVKVSCTASGGTFSSDAISWVRQAPGQGLEWMGGIIPMFGTANYAQKFQGRVTITADESTSTAYMELSSLRSEDTAVYYCAREGYYYPSAYLGSVLNDISSVYDEWGQGTLVTVSSTSGQAGQHHHHHHGAYPYDVPDYAS
notes: as for B1
B6: ET200-012 (scFv)
scFv: QSVLTQPPSVSAAAGQKVTISCSGSDSNIGNNYVSWYQHLPGTAPKLLIYDVKNRPSGIPDRFSGSKSGSSATLGIAGLQPGDEADYYCGTWDSRLDAYVFGTGTKVTVLGSRGGGGSGGGGSGGGGSLEMAQMQLVQSGAEVKKPGASVKVSCKTSGFPFNIFGITWVRQAPGQGLEWMGWISGYNGNTDYPQKFQGRVTMSTDTSTSTAYMELRNLKSDDTAVYYCARGAYGGMDTWGQGTLVTVSSTSGQAGQHHHHHHGAYPYDVPDYAS
notes: as for B1
B7: ET200-017 (scFv)
scFv: SYVLTQPPSVSVAPGKTARITCGGNNIGSKSVHWYQQKPGQAPVLVVYDDSDRPSGIPERFSGSNSGNTATLSISRVEAGDEADYYCQVWDSSSDHTVFGTGTKVTVLGSRGGGGSGGGGSGGGGSLEMAQVQLQQWGAGLLKPSETLSLTCAVYGGSFSGYYWSWIRQPPGKGLEWIGEINHSGSTNYNPSLKSRVTISVDTSKNQFSLKLSSVTAADTAVYYCARYYPGMDMWGQGTLVTVSSTSGQAGQHHHHHHGAYPYDVPDYAS
notes: as for B1
B8: ET200-018 (scFv)
scFv: QAVLTQPPSTSGTPGQRVTISCSGSSSNIGRNGVNWYQQLPGAAPKVLIYNDNQRPSGVPDRVSGSQSGSSGTLAIDGLRSEDEADYYCAAWDDSLHGVVFGGGTKLTVLGSRGGGGSGGGGSGGGGSLEMAQVQLVQSGAEVKKPGASVKVSCKVSGYTLNELSMHWVRQAPGKGLEWMGGFDPEDGETIYAQKFQGRVTMTEDTSTDTAYMELSSLRSEDTAVYYCARGGYGDSWGQGTLVTVSSTSGQAGQHHHHHHGAYPYDVPDYAS
notes: as for B1
B9: ET200-011 (scFv)
scFv: QSVVTQPPSVSAAPGQRVTISCSGSSSNISIYDVSWYQQLPGTAPKLLIYGNNKRPSGIADRFSGSTSGTSATLGITGLQTGDEADYYCGTWDDSLSGGVFGGGTKLTVLGSRGGGGSGGGGSGGGGSLEMAQMQLVQSGAEVKKPGSSVKVSCEASGGTLSSYAINWVRQAPGQGLEWMGGIIPMFGTAHYAQKFQGRVTITADESTKTAYMELSSLRSEDTAVYYCARGVHYASFDHWGQGTLVTVSSTSGQAGQHHHHHHGAYPYDVPDYAS
notes: as for B1
B10: ET200-022 (scFv)
scFv: QSVVTQPPSVSAAPGQKVTISCSGSSSNIGNNYVSWYQQLPGTAPKLLIYDNNKRPSGIPDRFSGSKSGTSATLGITGLQTGDEADYYCGTWDSSLGAPYVFGTGTKVTVLGSRGGGGSGGGGSGGGGSLEMAEVQLVQSWGGSEQPGRSLRLSCAASGFTFDDYAMHWVRQAPGKGLEWVSGISWNSGSIGYADSVKGRFTISRDNAKNSLYLQMNSLRAEDTAMYYCARYRQVGSAYDSWGQGTLVTVSSTSGQAGQHHHHHHGAYPYDVPDYAS
notes: as for B1
B11: ET200-020 (scFv)
scFv: QSVVTQPPSVSAAPGQKVTISCSGSTSNIGNNDVSWYQQLPGTAPKLLIYDNNKRPSGIPDRFSGSKSGTSATLGITGLQTGDEADYYCGTWDSSVSASWVFGRGTKLTVLGSRGGGGSGGGGSGGGGSLEMAQVQLVQSGAEVKKPGASVKVSCKASGYTFTSYGISWVRQAPGQGLEWMGWISAYNGNTNYPQKLQGRVTMTTDPSTSTAYMELRSLRSDDTAVYYCARSMTSFDYWGQGTLVTVSSTSGQAGQHHHHHHGAYPYDVPDYAS
notes: as for B1
B12: ET200-014 (scFv)
scFv: SYVLTQPPSVSVAPGKTARITCGGNNIGSKSVHWYQQKPGQAPVLVIYYDSDRPSGIPERFSGSNSGNTATLTISRVEAGDEADYYCQVWDSSSDHYVFGTGTKVTVLGSRGGGGSGGGGSGGGGSLEMAEVQLVETGGGLVQPGGSLRLSCAASGFTFSSYAMSWVRQAPGKGLEWVSAISGSDGSTYYADSVKGRFTISRDNSKNTLYLQMNSLRDEDTAVYYCARSHEANLVGDWWGQGTLVTVSSTSGQAGQHHHHHHGAYPYDVPDYAS
notes: as for B1

Tests used:
[1] = target: T1, FcRL2, overexpressed on 3T3 cells (UniProt Q96LA5 20-508, limits assumed); test: phage clone on 3T3-FcRL2 cells
T1 construct: whole, on cells
T1 sequence (looked up): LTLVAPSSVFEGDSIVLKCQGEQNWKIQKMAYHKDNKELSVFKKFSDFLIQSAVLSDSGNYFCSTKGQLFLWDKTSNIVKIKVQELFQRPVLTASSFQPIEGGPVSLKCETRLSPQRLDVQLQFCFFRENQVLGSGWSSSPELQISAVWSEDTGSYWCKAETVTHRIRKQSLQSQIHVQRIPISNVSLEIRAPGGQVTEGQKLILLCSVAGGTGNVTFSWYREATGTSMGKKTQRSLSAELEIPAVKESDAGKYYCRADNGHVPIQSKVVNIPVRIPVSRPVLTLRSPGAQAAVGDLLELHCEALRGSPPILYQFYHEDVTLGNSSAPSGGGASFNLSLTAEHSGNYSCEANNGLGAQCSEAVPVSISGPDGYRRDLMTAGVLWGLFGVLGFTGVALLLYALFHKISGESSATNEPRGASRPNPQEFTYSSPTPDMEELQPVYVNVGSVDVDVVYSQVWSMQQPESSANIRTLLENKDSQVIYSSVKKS

SLAMF9 protein = SLAMF9 protein (UniProt Q96A28 19-236, limits assumed); test: phage clone on SLAMF9 protein
SLAMF9 protein, sequence (Q96A28 19-236 limits assumed): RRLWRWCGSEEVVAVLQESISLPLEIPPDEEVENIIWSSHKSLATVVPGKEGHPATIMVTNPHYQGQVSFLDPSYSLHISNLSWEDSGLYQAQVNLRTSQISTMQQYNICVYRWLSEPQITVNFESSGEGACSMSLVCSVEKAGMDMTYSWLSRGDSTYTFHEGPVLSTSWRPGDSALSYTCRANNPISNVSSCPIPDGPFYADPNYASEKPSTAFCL

[2] = target: T2, Fc Receptor-like 5 (FcRL5), full length, overexpressed on 3T3 or Raji cells (human, UniProt Q96RD9 16-977); test: phage clone screening on cells
T2 construct: also called 3T3-FcRL5
T2 sequence: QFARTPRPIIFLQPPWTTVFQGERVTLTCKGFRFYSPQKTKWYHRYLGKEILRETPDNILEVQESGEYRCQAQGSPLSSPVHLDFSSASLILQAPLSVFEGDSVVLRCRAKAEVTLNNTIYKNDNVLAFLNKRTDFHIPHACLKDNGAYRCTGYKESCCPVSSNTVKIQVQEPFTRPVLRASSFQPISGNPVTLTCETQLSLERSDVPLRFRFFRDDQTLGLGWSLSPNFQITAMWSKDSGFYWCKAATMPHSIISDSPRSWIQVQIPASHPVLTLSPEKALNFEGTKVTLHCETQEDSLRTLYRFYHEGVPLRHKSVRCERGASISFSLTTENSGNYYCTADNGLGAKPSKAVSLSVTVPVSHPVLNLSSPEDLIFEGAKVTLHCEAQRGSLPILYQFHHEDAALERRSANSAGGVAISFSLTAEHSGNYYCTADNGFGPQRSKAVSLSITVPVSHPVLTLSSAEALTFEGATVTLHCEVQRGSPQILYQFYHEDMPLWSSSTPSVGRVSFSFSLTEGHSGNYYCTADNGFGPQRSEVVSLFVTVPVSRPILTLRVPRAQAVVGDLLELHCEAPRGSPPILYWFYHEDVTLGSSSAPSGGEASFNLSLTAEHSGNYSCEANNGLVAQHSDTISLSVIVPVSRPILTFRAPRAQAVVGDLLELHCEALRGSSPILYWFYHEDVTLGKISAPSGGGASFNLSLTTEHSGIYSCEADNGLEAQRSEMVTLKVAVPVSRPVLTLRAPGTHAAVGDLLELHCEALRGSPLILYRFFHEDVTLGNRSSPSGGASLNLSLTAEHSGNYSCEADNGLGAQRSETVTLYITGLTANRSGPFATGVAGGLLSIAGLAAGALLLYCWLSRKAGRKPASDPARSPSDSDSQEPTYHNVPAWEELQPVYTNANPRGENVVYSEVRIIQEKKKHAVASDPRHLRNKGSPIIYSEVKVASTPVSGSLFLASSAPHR
Experimental: Once selected, positive scFv clones are further tested for their binding to FcRL5 (e.g., human FcRL5) on live 3T3 cell surfaces by flow cytometry. Briefly, phage clones are incubated with 3T3 cells over-expressing FcRL5. The cells are washed and then incubated with a mouse anti-M13 coat protein mAb. Cells are washed again and labeled with a PE-horse anti-mouse Ig prior to flow cytometry.
Phage′ display against FcRL5 was performed to enrich for scFv phage clones that bind to FcRL5 specifically. Screening was carried out on FcRL5 overexpressing 3T3 cells or 3T3 cells expressing FcRL1, 2, 3, 4 or 6 as a negative control (FIG. 2).

| Binder | binding result [1] | binding result (SLAMF9 protein) | binding result [2] |
| --- | --- | --- | --- |
| B1 | no binding | no binding | binds |
| B2 | no binding | no binding | binds |
| B3 | no binding | no binding | binds |
| B4 | no binding | no binding | binds |
| B5 | no binding | no binding | binds |
| B6 | no binding | no binding | binds |
| B7 | no binding | no binding | binds |
| B8 | no binding | no binding | binds |
| B9 | no binding | no binding | binds |
| B10 | no binding | no binding | binds |
| B11 | no binding | no binding | binds |
| B12 | no binding | no binding | binds |
